Assays:
[1] = target: T1, human-IL10-his-Bio, Kactus IL1-HM410B (human, UniProt P22301 19-178, biotinylated); experiment: ELISA with purified IgG-form antibody
T1 construct: Unrelated control antigen; also called Kactus-IL10-Bio-his; not shown: his tag and biotin label

[2] = target: T2, Streptavidin, Pierce 21125 (UniProt P22629 37-163, limits assumed); experiment: ELISA with purified IgG-form antibody
T2 construct: Control protein coated on the plate; also called SA; Strepavidin

[3] = target: T3, Recombinant biotinylated Human BAFF-R Protein, Kactus BAF-HM40RB (human, UniProt Q96RJ3 1-78, biotinylated); experiment: BLI, IgG on the sensor, antigen 100 to 6.25 nM, 1:1 model
T3 construct: Bought; also called Kactus BAFF-R-his-Bio; Kactus BAFFR-his bio; not shown: his tag and biotin label
T3 sequence (looked up): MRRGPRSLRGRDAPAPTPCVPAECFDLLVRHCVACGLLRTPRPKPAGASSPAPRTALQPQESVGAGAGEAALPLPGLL

[4] = target: T4, Biotinylated Human CD27 Ligand, HIS, Avitag, ACRObiosystem CDL-H82Q9 (human, UniProt P32970 39-193, limits assumed, biotinylated); experiment: phage ELISA
T4 construct: Unrelated control antigen; also called ACRO-CD70-his; Acro-CD70-his; not shown: HIS tag and Avitag
T4 sequence (looked up): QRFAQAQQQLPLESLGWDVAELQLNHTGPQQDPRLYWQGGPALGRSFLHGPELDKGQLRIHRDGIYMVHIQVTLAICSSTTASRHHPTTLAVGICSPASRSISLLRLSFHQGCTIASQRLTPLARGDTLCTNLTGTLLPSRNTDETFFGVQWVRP

[5] = target: T5, Recombinant biotinylated Human CD19 Protein, Kactus CD2-HE121 (human, UniProt P15391 20-291, biotinylated); experiment: phage ELISA
T5 construct: Unrelated control antigen; also called Kactus-CD19-Fc; not shown: Fc by the short name
T5 sequence (looked up): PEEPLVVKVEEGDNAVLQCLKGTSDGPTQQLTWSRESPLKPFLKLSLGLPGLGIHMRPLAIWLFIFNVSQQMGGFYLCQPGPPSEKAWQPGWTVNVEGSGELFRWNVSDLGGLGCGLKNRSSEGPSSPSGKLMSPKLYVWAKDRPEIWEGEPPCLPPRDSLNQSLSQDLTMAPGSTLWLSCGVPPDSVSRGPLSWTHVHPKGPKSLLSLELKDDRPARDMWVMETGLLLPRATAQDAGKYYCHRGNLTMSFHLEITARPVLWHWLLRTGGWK

[6] = target: T2, Streptavidin, Pierce 21125; experiment: phage ELISA

T2 sequence (P22629 37-163 limits assumed): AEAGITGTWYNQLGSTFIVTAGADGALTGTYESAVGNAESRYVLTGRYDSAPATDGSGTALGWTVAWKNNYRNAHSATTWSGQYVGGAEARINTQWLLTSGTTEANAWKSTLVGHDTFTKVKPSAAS
T1 sequence (P22301 19-178): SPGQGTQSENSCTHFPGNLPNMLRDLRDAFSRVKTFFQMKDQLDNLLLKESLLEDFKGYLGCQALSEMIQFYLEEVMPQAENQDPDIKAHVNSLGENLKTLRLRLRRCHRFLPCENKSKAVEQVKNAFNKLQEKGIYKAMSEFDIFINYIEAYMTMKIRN

| Binder | binding result [1] | binding result [2] | Kd [3] [pM] | koff [3] [s⁻¹] | kon [3] [M⁻¹ s⁻¹] | binding result [4] | binding result [5] | binding result [6] |
| --- | --- | --- | --- | --- | --- | --- | --- | --- |
| Clone 10 IgG (Fc fusion, also called anti-BAFF-R IgG; not shown: human IgG4 Fc) QSALTQPASVSGSPGQSITISCTGTSSDVGGYNYVSWYQQHPGKAPKLMIYEVSNRPSGVSNRFSGSKSGNTASLTISGLQAEDEADYYCSSYTSSSTYVFGTGTKVTVLGSRGGGGSGGGGSGGGGSLEQITLKESGPTLVKPTQTLTLTCTFSGFSLSTSGVGVGWIRQPPGKALEWLALIYWDDDKRYSPSLKSRLTITKDTSKNQVVLTMTNMDPVDTATYYCARYAGQYSGMWPWDYWGQGTLVTVSS | no binding | no binding | 762 | 8.72e-05 | 114000 | – | – | – |
| Clone 10 (phage-displayed scFv monoclonal) (scFv, the phage coat protein fusion is not described; also called #10号克隆) scFv: QSALTQPASVSGSPGQSITISCTGTSSDVGGYNYVSWYQQHPGKAPKLMIYEVSNRPSGVSNRFSGSKSGNTASLTISGLQAEDEADYYCSSYTSSSTYVFGTGTKVTVLGSRGGGGSGGGGSGGGGSLEQITLKESGPTLVKPTQTLTLTCTFSGFSLSTSGVGVGWIRQPPGKALEWLALIYWDDDKRYSPSLKSRLTITKDTSKNQVVLTMTNMDPVDTATYYCARYAGQYSGMWPWDYWGQGTLVTVSS | – | – | – | – | – | no binding | no binding | no binding |

Source: patent publication CN116041515A (NANJING IASO BIOTHERAPEUTICS TECH CO LTD, dated 2023)
